# B1: Glycine--tRNA ligase (Homo sapiens), P41250 (parent)
# chain: MPSPRPVLLRGARAALLLLLPPRLLARPSLLLRRSLSAASCPPISLPAAASRSSMDGAGAEEVLAPLRLAVRQQGDLVRKLKEDKAPQVDVDKAVAELKARKRVLEAKELALQPKDDIVDRAKMEDTLKRRFFYDQAFAIYGGVSGLYDFGPVGCALKNNIIQTWRQHFIQEEQILEIDCTMLTPEPVLKTSGHVDKFADFMVKDVKNGECFRADHLLKAHLQKLMSDKKCSVEKKSEMESVLAQLDNYGQQELADLFVNYNVKSPITGNDLSPPVSFNLMFKTFIGPGGNMPGYLRPETAQGIFLNFKRLLEFNQGKLPFAAAQIGNSFRNEISPRSGLIRVREFTMAEIEHFVDPSEKDHPKFQNVADLHLYLYSAKAQVSGQSARKMRLGDAVEQGVINNTVLGYFIGRIYLYLTKVGISPDKLRFRQHMENEMAHYACDCWDAESKTSYGWIEIVGCADRSCYDLSCHARATKVPLVAEKPLKEPKTVNVVQFEPSKGAIGKAYKKDAKLVMEYLAICDECYITEMEMLLNEKGEFTIETEGKTFQLTKDMINVKRFQKTLYVEEVVPNVIEPSFGLGRIMYTVFEHTFHVREGDEQRTFFSFPAVVAPFKCSVLPLSQNQEFMPFVKELSEALTRHGVSHKVDDSSGSIGRRYARTDEIGVAFGVTIDFDTVNKTPHTATLRDRDSMRQIRAEISELPSIVQDLANGNITWADVEARYPLFEGQETGKKETIEE
# Variants of: B1
# Details: with hdac6_human HDAC6, Q9UBN7
# Chain of hdac6_human HDAC6, Q9UBN7 (Q9UBN7 whole entry): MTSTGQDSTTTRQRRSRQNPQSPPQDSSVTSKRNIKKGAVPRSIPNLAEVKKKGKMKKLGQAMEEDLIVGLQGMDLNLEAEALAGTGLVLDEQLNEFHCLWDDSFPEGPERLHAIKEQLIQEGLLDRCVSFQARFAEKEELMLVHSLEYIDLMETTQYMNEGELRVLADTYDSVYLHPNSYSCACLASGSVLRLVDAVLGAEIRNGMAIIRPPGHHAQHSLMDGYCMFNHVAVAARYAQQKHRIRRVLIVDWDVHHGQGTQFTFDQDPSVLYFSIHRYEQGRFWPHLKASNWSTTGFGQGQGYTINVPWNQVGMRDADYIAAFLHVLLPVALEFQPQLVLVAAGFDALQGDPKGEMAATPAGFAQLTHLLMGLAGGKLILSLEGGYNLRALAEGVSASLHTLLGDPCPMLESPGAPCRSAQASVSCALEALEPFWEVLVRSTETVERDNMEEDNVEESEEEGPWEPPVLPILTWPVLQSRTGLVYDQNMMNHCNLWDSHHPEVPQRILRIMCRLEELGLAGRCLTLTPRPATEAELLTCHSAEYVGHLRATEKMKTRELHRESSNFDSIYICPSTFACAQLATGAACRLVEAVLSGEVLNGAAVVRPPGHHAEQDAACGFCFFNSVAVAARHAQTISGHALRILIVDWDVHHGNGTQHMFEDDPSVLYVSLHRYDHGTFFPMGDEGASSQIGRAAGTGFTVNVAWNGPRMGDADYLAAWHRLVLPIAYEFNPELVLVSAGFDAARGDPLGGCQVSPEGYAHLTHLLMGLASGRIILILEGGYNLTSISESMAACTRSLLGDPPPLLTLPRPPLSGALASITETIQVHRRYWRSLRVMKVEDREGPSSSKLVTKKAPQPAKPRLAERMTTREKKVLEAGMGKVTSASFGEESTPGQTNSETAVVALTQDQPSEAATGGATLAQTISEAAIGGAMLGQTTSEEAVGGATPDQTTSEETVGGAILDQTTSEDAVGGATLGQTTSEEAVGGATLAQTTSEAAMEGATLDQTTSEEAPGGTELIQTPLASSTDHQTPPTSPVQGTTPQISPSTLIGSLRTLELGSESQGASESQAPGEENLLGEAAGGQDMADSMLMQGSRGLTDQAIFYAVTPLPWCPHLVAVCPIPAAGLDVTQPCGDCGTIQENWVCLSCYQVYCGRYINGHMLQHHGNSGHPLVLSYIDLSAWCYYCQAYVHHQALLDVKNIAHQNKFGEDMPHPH
row,effect of a mutation on the interaction,Variant
1,with no effect,C211R

# From IntAct's records for PubMed 29415205
